Test results reported in PMC10173337.
“And” between values parts separate entries of the source, which are not always exact repeats. Equal values may be shown once.

Molecular target: eight amino acid-mutated FcγRIIIa without glycosylation (ligand of the TSKgel FcR-IIIA-NPR column) (UniProt P08637)
Test: FcγRIIIa affinity column chromatography

Chain of UniProt P08637 (P08637 17-208, change not shown): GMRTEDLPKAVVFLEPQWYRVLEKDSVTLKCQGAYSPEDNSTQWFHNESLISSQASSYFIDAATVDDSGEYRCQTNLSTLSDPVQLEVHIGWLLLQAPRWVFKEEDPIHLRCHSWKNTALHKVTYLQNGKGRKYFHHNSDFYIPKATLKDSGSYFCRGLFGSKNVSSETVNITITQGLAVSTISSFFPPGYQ

retention time	Substance
16.4 min	Fc fragment of rituximab with full-length glycan 10 (domain or fragment)
12.1 min and 14.8 min and 17.2 min	full-length mogamulizumab 4 (antibody)
15.6 min	full-length rituximab with full-length glycan 8 (antibody)
9.8 min and 12.2 min and 14.7 min	full-length trastuzumab 2 (antibody)
11.2 min and 13.6 min and 16 min	Fc fragment of rituximab after papain digestion 5 (domain or fragment)
10.2 min and 12.6 min and 15 min	full-length rituximab 1 (antibody)
4.3 min	full-length rituximab with trisaccharide 7 (antibody)
10.7 min and 13.3 min and 15.1 min	full-length cetuximab 3 (antibody)
